{"source": "patent US20080194701A1", "about": "“Bifunctional Enzyme with Y-Glutamylcysteine Synthetase and Glutathione Synthetase Activity and Uses Thereof” (priority 2004, published 2008)", "key": {"[1]": {"system": "N[C@@H](CCC(=O)N[C@@H](CS)C(=O)O)C(=O)O", "experiment": "purified protein, by the assay type", "settings": "other: substrate Km, GS activity"}, "N[C@@H](CS)C(=O)O": {"system": "N[C@@H](CS)C(=O)O", "experiment": "purified protein, by the assay type", "settings": "other: substrate Km, γ-GCS activity"}, "E. coli γ-GCS": {"molecular_target": "E. coli γ-GCS (Escherichia coli, UniProt P0A6W9)", "sequence (P0A6W9 whole entry)": "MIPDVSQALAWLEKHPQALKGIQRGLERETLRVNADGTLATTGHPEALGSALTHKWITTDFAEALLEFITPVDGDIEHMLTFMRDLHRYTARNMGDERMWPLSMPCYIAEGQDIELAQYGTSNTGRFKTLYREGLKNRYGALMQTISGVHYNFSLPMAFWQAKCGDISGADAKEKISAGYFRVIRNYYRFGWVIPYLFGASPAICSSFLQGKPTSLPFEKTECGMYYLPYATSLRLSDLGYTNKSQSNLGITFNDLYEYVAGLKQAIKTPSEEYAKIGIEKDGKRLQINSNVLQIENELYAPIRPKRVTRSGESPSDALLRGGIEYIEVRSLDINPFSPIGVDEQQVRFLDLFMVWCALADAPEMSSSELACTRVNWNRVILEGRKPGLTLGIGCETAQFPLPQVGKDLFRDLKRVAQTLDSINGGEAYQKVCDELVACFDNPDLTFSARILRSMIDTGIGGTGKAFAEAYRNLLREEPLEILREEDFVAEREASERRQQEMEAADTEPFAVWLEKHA", "settings": "cited from earlier work"}, "[2]": {"system": "vaginal colonization with S. agalactiae (Group B Streptococcus)", "settings": "one 500 mg capsule by mouth every 6 hours from 2 days before due date", "text": "A person who is allergic to penicillin is seen for prenatal screening prior to delivery of their first child."}, "[3]": {"system": "urinary tract infection caused by E. faecalis", "experiment": "Treatment of urinary tract infection in a patient", "assay_type": "in vivo, human", "text": "A person weighing 50 kg presents to their physician with a urinary tract infection caused by E. faecalis. […] Two months later they return with a recurrence of the urinary tract infection due to E. faecalis."}, "S. agalactiae γ-GCS-GS": {"molecular_target": "T1, S. agalactiae γ-GCS-GS (Streptococcus agalactiae serotype V, UniProt Q8DXM9)", "T1 sequence (Q8DXM9 1-750)": "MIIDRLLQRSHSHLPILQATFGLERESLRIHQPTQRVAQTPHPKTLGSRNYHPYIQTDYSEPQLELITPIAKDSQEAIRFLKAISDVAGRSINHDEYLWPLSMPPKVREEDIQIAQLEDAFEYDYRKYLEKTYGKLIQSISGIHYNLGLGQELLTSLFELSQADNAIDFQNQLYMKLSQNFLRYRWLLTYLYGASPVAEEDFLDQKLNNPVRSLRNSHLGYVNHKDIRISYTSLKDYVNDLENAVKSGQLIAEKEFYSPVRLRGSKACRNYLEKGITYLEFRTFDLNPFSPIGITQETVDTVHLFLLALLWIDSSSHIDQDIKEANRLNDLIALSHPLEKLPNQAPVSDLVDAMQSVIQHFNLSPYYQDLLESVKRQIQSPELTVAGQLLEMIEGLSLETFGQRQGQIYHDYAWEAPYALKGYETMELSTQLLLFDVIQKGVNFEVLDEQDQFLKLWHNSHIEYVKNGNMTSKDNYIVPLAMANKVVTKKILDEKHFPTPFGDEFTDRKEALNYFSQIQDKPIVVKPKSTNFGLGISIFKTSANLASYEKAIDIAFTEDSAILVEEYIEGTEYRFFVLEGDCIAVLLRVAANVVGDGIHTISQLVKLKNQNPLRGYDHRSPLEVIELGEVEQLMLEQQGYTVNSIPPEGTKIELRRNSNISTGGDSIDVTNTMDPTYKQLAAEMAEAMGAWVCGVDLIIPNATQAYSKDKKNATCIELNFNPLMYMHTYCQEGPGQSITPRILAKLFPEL", "experiment": "γ-GCS activity assay based on ADP formation, S. agalactiae γ-GCS-GS", "assay_type": "biochemical", "design": "corresponded to full-length S. agalactiae γ-GCS-GS with an N-terminal His8-tag; made in house; host or cells: E. coli SG13009 with pQE30-gshAB plus pREP4 or pRARE", "experimental": "In Table 1, a unit was defined as the amount of enzyme activity required to catalyze the formation of 1 μmol of product per hour. Specific activity was shown as units per mg protein. Activity was determined at 37° C. based on ADP formation in reaction mixtures containing L-glutamate and L-cysteine and using pyruvate kinase and lactate dehydrogenase to couple ADP formation to NADH oxidation, which was monitored at 340 nm.\nExp. Purif. 13, 268-276 (1998).\nAt set time points ranging from one to 30 minutes, 5 μl aliquots were removed and assayed for residual enzyme activity using the standard γ-GCS assay based on ADP formation."}, "Human γ-GCS": {"molecular_target": "T2, Human γ-GCS (Homo sapiens, UniProt P48506)", "T2 sequence (P48506 1-637)": "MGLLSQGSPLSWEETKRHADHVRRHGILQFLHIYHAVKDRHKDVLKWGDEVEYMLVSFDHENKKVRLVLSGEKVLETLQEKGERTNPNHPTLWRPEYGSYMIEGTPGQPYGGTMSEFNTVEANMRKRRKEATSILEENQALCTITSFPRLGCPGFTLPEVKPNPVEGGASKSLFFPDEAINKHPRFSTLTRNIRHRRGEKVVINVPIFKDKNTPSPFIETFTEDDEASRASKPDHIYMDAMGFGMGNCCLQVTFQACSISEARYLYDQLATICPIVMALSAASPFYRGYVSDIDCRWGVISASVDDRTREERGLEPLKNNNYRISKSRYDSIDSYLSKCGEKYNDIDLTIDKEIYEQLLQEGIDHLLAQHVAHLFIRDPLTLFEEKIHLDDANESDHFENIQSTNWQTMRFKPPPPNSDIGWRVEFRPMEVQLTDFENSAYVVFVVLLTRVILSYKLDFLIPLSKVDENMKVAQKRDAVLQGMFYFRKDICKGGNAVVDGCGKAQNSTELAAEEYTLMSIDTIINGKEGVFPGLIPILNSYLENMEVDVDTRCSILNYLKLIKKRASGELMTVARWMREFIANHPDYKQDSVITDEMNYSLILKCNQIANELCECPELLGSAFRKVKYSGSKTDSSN", "T2 sequence (P48507 1-274 partner)": "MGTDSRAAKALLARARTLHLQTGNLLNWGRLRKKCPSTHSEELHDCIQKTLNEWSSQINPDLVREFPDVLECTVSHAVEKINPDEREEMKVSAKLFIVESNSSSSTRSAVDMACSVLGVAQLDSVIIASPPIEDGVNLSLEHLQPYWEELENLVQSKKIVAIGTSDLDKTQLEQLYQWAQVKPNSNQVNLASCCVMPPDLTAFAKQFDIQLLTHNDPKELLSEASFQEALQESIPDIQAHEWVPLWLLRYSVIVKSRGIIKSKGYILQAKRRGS", "settings": "cited from earlier work"}, "[4]": {"molecular_target": "S. agalactiae γ-glutamylcysteine synthetase-glutathione synthetase (γ-GCS-GS) with an N-terminal His8-tag (Streptococcus agalactiae) (UniProt Q8DXM9)", "experiment": "cell-based or functional assay"}, "[5]": {"substrate": "N[C@@H](CCC(=O)N[C@@H](CS)C(=O)O)C(=O)O", "experiment": "cells, lysate or membranes named", "settings": "other: substrate Km, GS activity; pH 7.4"}, "[6]": {"substrate": "CC[C@H](N)C(=O)OC(=O)CC[C@H](N)C(=O)O", "experiment": "cells, lysate or membranes named", "settings": "other: substrate Km, GS activity; pH 7.4"}, "[7]": {"substrate": "NCC(=O)O", "experiment": "cells, lysate or membranes named", "settings": "other: substrate Km, GS activity; pH 7.4"}, "[8]": {"substrate": "N[C@@H](CS)C(=O)O", "experiment": "γ-GCS activity assay based on ADP formation, S. agalactiae γ-GCS-GS", "assay_type": "biochemical, Streptococcus agalactiae", "settings": "other: substrate Km, pH 8.2, 37.0 °C"}, "E. faecalis γ-GCS-GS [9]": {"molecular_target": "T3, E. faecalis γ-GCS-GS (Enterococcus faecalis, UniProt Q82ZG8)", "experiment": "GS activity of E. faecalis γ-GCS-GS", "settings": "purified enzyme"}, "E. faecalis γ-GCS-GS [10]": {"molecular_target": "T3, E. faecalis γ-GCS-GS", "experiment": "γ-GCS activity of E. faecalis γ-GCS-GS"}}}
{"molecule": "E. faecalis γ-GCS-GS (Enterococcus faecalis V583)", "values": [{"measurement": "Km", "setting": "[1]", "value": "4300 ± 50", "unit": "µM"}, {"measurement": "Km", "setting": "N[C@@H](CS)C(=O)O", "value": "192 ± 14", "unit": "µM"}]}
{"molecule": "CCCC[S@](=N)(=O)CC[C@H](N)C(=O)O", "note": "[L-S—BSO, L-buthionine-S-sulfoximine, reference compound]", "values": [{"measurement": "Kd", "setting": "E. coli γ-GCS", "value": 66, "unit": "µM"}, {"measurement": "Ki", "setting": "E. coli γ-GCS", "value": 66, "unit": "µM"}, {"measurement": "kinact", "setting": "E. coli γ-GCS", "value": "~0.30", "unit": "min⁻¹"}, {"measurement": "t1/2", "setting": "E. coli γ-GCS; half-life for inactivation", "value": 2.3, "unit": "min"}, {"measurement": "outcome of colonization", "setting": "[2]", "value": "no S. agalactiae bacteria are detected"}, {"measurement": "outcome of infection", "setting": "[3]; one 500 mg capsule by mouth every 6 hours for two days", "value": "without resolution of the infection"}, {"measurement": "outcome of infection", "setting": "[3]; two 500 mg capsules every 6 hours, fourth day", "value": "urine is free of detectable bacteria"}, {"measurement": "Kd", "setting": "S. agalactiae γ-GCS-GS", "value": "2800 ± 300", "unit": "µM"}, {"measurement": "Ki", "setting": "S. agalactiae γ-GCS-GS", "value": "4900 ± 200", "unit": "µM"}, {"measurement": "kinact", "setting": "S. agalactiae γ-GCS-GS", "value": 0.00217, "unit": "s⁻¹"}, {"measurement": "Kd", "setting": "Human γ-GCS", "value": 25, "unit": "µM"}, {"measurement": "Ki", "setting": "Human γ-GCS", "value": 25, "unit": "µM"}, {"measurement": "kinact", "setting": "Human γ-GCS", "value": 3.9, "unit": "min⁻¹"}, {"measurement": "t1/2", "setting": "Human γ-GCS; half-life for inactivation", "value": 0.183, "unit": "min"}]}
{"molecule": "Glutathione (L-γ-glutamyl-L-cysteinylglycine) (peptide)", "values": [{"measurement": "inhibition of γ-GCS activity", "setting": "[4]", "value": "< 5", "unit": "%"}]}
{"molecule": "S. agalactiae γ-GCS-GS (Streptococcus agalactiae 2603V/R) (protein, corresponded to full-length S. agalactiae γ-GCS-GS with an N-terminal His8-tag; made in house; host or cells: E. coli SG13009 with pQE30-gshAB plus pREP4 or pRARE) MIIDRLLQRSHSHLPILQATFGLERESLRIHQPTQRVAQTPHPKTLGSRNYHPYIQTDYSEPQLELITPIAKDSQEAIRFLKAISDVAGRSINHDEYLWPLSMPPKVREEDIQIAQLEDAFEYDYRKYLEKTYGKLIQSISGIHYNLGLGQELLTSLFELSQADNAIDFQNQLYMKLSQNFLRYRWLLTYLYGASPVAEEDFLDQKLNNPVRSLRNSHLGYVNHKDIRISYTSLKDYVNDLENAVKSGQLIAEKEFYSPVRLRGSKACRNYLEKGITYLEFRTFDLNPFSPIGITQETVDTVHLFLLALLWIDSSSHIDQDIKEANRLNDLIALSHPLEKLPNQAPVSDLVDAMQSVIQHFNLSPYYQDLLESVKRQIQSPELTVAGQLLEMIEGLSLETFGQRQGQIYHDYAWEAPYALKGYETMELSTQLLLFDVIQKGVNFEVLDEQDQFLKLWHNSHIEYVKNGNMTSKDNYIVPLAMANKVVTKKILDEKHFPTPFGDEFTDRKEALNYFSQIQDKPIVVKPKSTNFGLGISIFKTSANLASYEKAIDIAFTEDSAILVEEYIEGTEYRFFVLEGDCIAVLLRVAANVVGDGIHTISQLVKLKNQNPLRGYDHRSPLEVIELGEVEQLMLEQQGYTVNSIPPEGTKIELRRNSNISTGGDSIDVTNTMDPTYKQLAAEMAEAMGAWVCGVDLIIPNATQAYSKDKKNATCIELNFNPLMYMHTYCQEGPGQSITPRILAKLFPEL", "values": [{"measurement": "Km", "setting": "[5]", "value": "3.9 ± 0.5", "unit": "mM mM"}, {"measurement": "Vmax", "setting": "[5]", "value": "2264 ± 896", "unit": "units/mg units/mg"}, {"measurement": "Km", "setting": "[6]", "value": "11.5 ± 1.5", "unit": "mM mM"}, {"measurement": "Vmax", "setting": "[6]", "value": "2648 ± 597", "unit": "units/mg units/mg"}, {"measurement": "Km", "setting": "[7]", "value": "6 ± 0.5", "unit": "mM mM"}, {"measurement": "Vmax", "setting": "[7]", "value": "2326 ± 584", "unit": "units/mg"}, {"measurement": "Km", "setting": "[8]", "value": "160 ± 9", "unit": "μM μM"}, {"measurement": "Vmax", "setting": "[8]", "value": "1126 ± 21", "unit": "units/mg"}]}
{"molecule": "E. faecalis γ-GCS-GS: bifunctional γ-GCS-GS enzyme of E. faecalis (gshAB, EF3089; SEQ ID NO:12) expressed in E. coli (protein, listed as Enterococcus faecalis) MNYRELMQKKNVRPYVLMARFGLEKENQRSTREGLLATTEHPTVFGNRSYHPYIQTDFSETQLELITPVANSGTEMLRFLDAIHDVARRSIPEDEMLWPLSMPPQLPTKDEEIKIAKLDQYDAVLYRRYLAKEYGKRKQMVSGIHFNFEYDQALIQQLYDEQSEVTDCKQFKTKVYMKVARNFLRYRWLITYLFGASPVSEDRYFRVYDDQPQEPVRSIRNSTYGYRNHDNVKVSYASLERYLEDIHRMVENGLLSEEKEFYAPVRLRGGKQMSDLPKTGIRYIELRNLDLNPFSRLGIVEDTVDFLHYFMLYLLWTDEKEEADEWVKTGDIFNEQVALGHPHETIKLIAEGDRIFSEMIDMLDALGIRKGKEVVGKYYQQLRNPQDTVSGKMWTIIQENSNSELGNIFGNQYQSMAFERPYQLAGFREMELSTQIFLFDAIQKGLEIEILDEQEQFLKLQHGEHIEYVKNANMTSKDNYVVPLIMENKTVTKKILSAAGFHVPGGEEFSSFIEAQEAHLRYANKAFVVKPKSTNYGLGITIFKEGASLEDFTEALRIAFKEDTAVLIEEFLPGTEYRFFVLDNDVKAIMLRVPANVTGDGKHTVEELVAAKNSDPLRGTNHRAPLELIQLNDLEKLMLKEQGLTIYSVPEKEQIVYLRENSNVSTGGDSIDMTDVIDDSYKQIAIEAVAALGAKICGIDLIIPDKDVKGTRDSLTYGIIEANFNPAMHMHVYPYAGQGRRLTMDVLKLLYPEVVQ", "values": [{"measurement": "GS specific activity", "setting": "E. faecalis γ-GCS-GS [9]", "value": 2297, "unit": "units/mg"}, {"measurement": "ratio of activities (γ-GCS to GS)", "setting": "E. faecalis γ-GCS-GS [10]", "value": "about 0.23"}, {"measurement": "γ-GCS specific activity", "setting": "E. faecalis γ-GCS-GS [10]; purified enzyme", "value": 240, "unit": "units/mg"}]}
